Experimental data published in patent US7514534 (DYAX, dated 2009).

B1: A05 (antibody, human IgG4, V domains shown)
VH: EVQLLESGGGLVQPGGSLRLSCAASGFTFSVYSMNWVRQAPGKGLEWVSYIVPSGGNTPYADSVKGRFTISRDNSKNTLYLQMNSLRAEDTAVYYCARDGAATVDLDYWGQGTLVTVSS
VL: DIQMTQSPSSLSLSPGERATLSCRASQSVSSYLAWYQQKPGQAPRLLIYDASNRATGIPARFSGSGSGTDFTLTISSLEPEDFAVYYCQQRSNWPRTFGGGTKVEIKR
notes: whole human IgG4
B2: D07 (antibody, human IgG4, V domains shown)
VH: EVQLLESGGGLVQPGGSLRLSCAASGFTFSEYNMFWVRQAPGKGLEWVSYIYSSGGSTDYADSVKGRFTISRDNSKNTLYLQMNSLRAEDTAVYYCARVGIAARPFDPWGQGTLVTVSS
VL: QSELTQPASVSGSPGQSITISCTGTNSDIGGYNYVSWYQQHPGKVPKLLIFEVNNRPSGVSSRFSGSKSGDTASLTISGLQPEDEAVYYCGSFTVSVTYVFGTGTKVTVLG
notes: whole human IgG4
B3: D09 (antibody, V domains shown)
VH: EVQLLESGGGLVQPGGSLRLSCAASGFTFSHYNMHWVRQAPGKGLEWVSGIVSSGGNTGYADSVKGRFTISRDNSKNTLYLQMNSLRAEDTAVDYCARVVRYSSGWYYWFDPWGQGTLVTVSS
VL: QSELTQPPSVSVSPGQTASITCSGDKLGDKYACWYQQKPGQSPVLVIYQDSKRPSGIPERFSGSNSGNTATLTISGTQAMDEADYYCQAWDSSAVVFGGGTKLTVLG
notes: whole human IgG4
B4: A09 (antibody, human IgG4, V domains shown)
VH: EVQLLESGGGLVQPGGSLRLSCAASGFTFSWYDMYWVRQAPGKGLEWVSSIYSSGGYTAYADSVKGRFTISRDNSKNTLYLQMNSLRAEDTAVYYCAKDRDPCSRTTCYNWFDPWGQGTLVTVSS
VL: QSELTQPPSASGTPGQRVTISCSGGSSNIGSNFVYWYRQLPGTAPKLLIYRNYQRPSGVPDRFSGSKSGTSASLAISGLLSEDEADYYCAAWDDNVGGVFGSGTKVTVLG
notes: whole human IgG4
B5: A08 (antibody, human IgG4, V domains shown)
VH: EVQLLESGGGLVQPGGSLRLSCAASGFTFSVYDMPWVRQAPGKGLEWVSVIYPSGGFTRYADSVKGRFTISRDNSKNTLYLQMNSLRAEDTAVYYCAADPTIQLWAYYYGMDVWGQGTTVTVSS
VL: QSVLTQPPSVSGTPGQRVTISCSGGYPNMGSNYAHWYQQLPGTAPKLLIYNDNQRPSGVPDRFSGSKSGTSASLAISGLRSEDEADYYCAAWDDSLSGPVFGGGTKLTVLG
notes: whole human IgG4
B6: D08 (antibody, human IgG4, V domains shown)
VH: EVQLLESGGGLVQPGGSLRLSCAASGFTFSFYAMWWVRQAPGKGLEWVSRIYSSGGKTWYADSVKGRFTISRDNSKNTLYLQMNSLRAEDTAVYYCARVGMSTYAFDIWGQGTMVTVSS
VL: DIQMTQSPSSLSASVGDRVTITCRASQSISDYLNWYQQKPGKAPDLLIYAASSLQSGVPSRFSGSGSGTDFTLTVSSLQPEDFATYFCQQSYSIPLTFGGGTKVEITR
notes: whole human IgG4
B7: A06 (antibody, human IgG4, V domains shown)
VH: EVQLLESGGGLVQPGGSLRLSCAASGFTFSPYHMGWVRQAPGKGLEWVSGIYPSGGWTNYADSVKGRFTISRDNSKNTLYLQMNSLRAEDTAVYYCARDGYSSGWFRYWGQGTLVTVSS
VL: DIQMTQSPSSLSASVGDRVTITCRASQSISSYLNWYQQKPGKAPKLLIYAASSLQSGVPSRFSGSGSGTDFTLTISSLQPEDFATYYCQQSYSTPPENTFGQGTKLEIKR
notes: whole human IgG4
B8: A07 (antibody, human IgG4, V domains shown)
VH: EVQLLESGGGLVQPGGSLRLSCAASGFTFSEYNMMWVRQAPGKGLEWVSVISPSGGGTLYADSVKGRFTISRDNSKNTLYLQMNSLRAEDTAVYYCARDLNNSSPPDSNDAFDIWGRGTMVTVSS
VL: QSELTQPPSASGSPGQSVTISCTGTSSDVGGYNYVSWYQQHPDKAPKLLIYEVTQRPSGVPDRFSGSRSGNTASLTVSGLQAEDEADYYCSSYAGRNNLYVFGPGTKVTVLG
notes: whole human IgG4

Tests used:
[1] = biological target: T1, MMP-26 catalytic domain, tagged with hexa-histidine (human, UniProt Q9NRE1 90-261); experiment: bead-based ELISA, MMP-26 on nickel beads, IgG4 culture supernatant
T1 construct: the forward primer adds Met-Ala before it; also called MMP-26 target protein; Matrilysin-2; not shown: Also any N-terminal residues added by the forward primer (Met-Ala according to our card; the primers were not visible to me)
T1 sequence: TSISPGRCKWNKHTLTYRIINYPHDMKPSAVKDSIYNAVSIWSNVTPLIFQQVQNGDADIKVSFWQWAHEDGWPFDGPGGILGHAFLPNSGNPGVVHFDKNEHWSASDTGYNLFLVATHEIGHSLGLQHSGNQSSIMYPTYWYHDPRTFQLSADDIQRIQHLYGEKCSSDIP

MMP-9 = biological target: T2, MMP-9 (UniProt P14780 107-707, limits assumed); experiment: cross-reactivity ELISA on coated MMP
T2 construct: also called gelatinase

MMP-3 = biological target: T3, MMP-3 (UniProt P08254 100-477, limits assumed); experiment: cross-reactivity ELISA on coated MMP
T3 construct: also called stromelysin-1
T3 sequence (P08254 100-477 limits assumed): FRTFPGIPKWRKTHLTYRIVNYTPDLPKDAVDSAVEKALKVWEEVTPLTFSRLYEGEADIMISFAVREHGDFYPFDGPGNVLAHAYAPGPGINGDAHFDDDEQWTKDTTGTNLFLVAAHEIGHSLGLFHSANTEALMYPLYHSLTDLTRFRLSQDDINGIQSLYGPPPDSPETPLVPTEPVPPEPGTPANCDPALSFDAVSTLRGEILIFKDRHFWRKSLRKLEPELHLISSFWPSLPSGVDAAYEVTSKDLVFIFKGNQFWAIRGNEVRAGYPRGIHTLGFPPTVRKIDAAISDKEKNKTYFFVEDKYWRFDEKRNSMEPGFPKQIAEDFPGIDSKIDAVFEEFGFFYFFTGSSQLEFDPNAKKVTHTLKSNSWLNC

T2 sequence (P14780 107-707 limits assumed): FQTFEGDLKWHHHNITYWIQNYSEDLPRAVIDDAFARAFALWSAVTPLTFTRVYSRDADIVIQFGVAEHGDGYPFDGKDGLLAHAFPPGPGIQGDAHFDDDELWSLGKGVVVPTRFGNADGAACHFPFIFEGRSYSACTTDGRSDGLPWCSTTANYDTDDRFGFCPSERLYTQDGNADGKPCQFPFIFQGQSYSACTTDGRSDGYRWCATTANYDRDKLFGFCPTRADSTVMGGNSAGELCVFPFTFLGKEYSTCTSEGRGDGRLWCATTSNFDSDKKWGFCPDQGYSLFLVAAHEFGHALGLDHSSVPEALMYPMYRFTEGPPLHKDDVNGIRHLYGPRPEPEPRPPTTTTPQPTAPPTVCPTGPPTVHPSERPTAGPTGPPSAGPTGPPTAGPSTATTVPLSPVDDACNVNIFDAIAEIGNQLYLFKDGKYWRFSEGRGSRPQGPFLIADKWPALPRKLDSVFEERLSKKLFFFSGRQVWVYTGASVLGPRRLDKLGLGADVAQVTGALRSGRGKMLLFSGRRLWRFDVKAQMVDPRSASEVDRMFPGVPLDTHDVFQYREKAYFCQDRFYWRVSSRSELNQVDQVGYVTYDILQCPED

Binder	F > B (fold over background) [1] [fold over background]	binding result (MMP-9)	binding result (MMP-3)
B1	2.48	no binding (tested: 2 µg/ml)	no binding (tested: 2 µg/ml)
B2	3.3	no binding (tested: 2 µg/ml)	no binding (tested: 2 µg/ml)
B3	4.3	no binding (tested: 2 µg/ml)	no binding (tested: 2 µg/ml)
B4	2.5	no binding (tested: 2 µg/ml)	no binding (tested: 2 µg/ml)
B5	1.94	no binding (tested: 2 µg/ml)	no binding (tested: 2 µg/ml)
B6	3	no binding (tested: 2 µg/ml)	no binding (tested: 2 µg/ml)
B7	5.4	no binding (tested: 2 µg/ml)	no binding (tested: 2 µg/ml)
B8	8.38	no binding (tested: 2 µg/ml)	no binding (tested: 2 µg/ml)
